Test [1] addresses T1, C-terminal GFP2-tagged β2-adrenergic receptor (β2-AR/GFP2) (human, UniProt P07550 1-413).
T1 construct: human β2-adrenergic receptor; not shown: GFP2, C-terminal, kept
The test is described as follows: MST; lysate of HEK-293 cells with β2-AR/GFP2 kept constant as fluorescent target, P3 titrated in 1:1 dilutions, in the presence of 10 µM isoproterenol; MST buffer with 0.05% Tween 20, 25 °C; EC50 from bound fraction. The note with it: one partner purified.

For test [2], the target named is T1, C-terminal GFP2-tagged β2-adrenergic …. In words: MST; lysate of HEK-293 cells with β2-AR/GFP2 kept constant as fluorescent target, P3 titrated in 1:1 dilutions, no agonist; MST buffer with 0.05% Tween 20, 25 °C; EC50 from bound fraction. The note with it: one partner purified.

B1: P3, nanobody-derived peptide (NDP) of Nb71 (peptide)
peptide: EDTAVYYCNANWDLLSD
notes: 17 aa stretch of the nanobody Nb71 (amino acid residues 88-104, includes CDR3), picked by computational peptide scanning; numbers count on Nb71; source: synthetic peptide, custom-synthesized at Biomatik Corporation
For B1, the results for the EC50 in test [1] and in test [2] were 3.57 ± 0.81 µM and 58.2 ± 13.6 µM, respectively.

For the origin of these results see paper PMC6851183, “Computational design and characterization of nanobody-derived peptides that stabilize the active conformation of the β2-adrenergic receptor (β2-AR)” (Scientific Reports, 2019).
